Measured values reported in patent US20230250154A1 (CYTONICS, published 2023).
Each block holds one binder with its values, some of them ahead of it.

Assays:
Test in all cases: cell-based or functional assay
[1] = molecular target: T1, ADAMTS5 (human, UniProt Q9UNA0 262-622, limits assumed)
T1 sequence (looked up): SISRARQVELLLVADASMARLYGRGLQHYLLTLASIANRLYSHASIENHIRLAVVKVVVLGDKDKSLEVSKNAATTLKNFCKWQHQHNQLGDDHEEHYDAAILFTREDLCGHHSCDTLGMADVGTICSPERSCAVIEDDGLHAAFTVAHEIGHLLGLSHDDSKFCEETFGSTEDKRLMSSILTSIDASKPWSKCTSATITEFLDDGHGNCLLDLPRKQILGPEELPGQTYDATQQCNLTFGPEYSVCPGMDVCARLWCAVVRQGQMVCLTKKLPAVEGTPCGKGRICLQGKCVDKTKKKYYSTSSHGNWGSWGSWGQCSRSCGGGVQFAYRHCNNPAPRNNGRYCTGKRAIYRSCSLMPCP

[2] = molecular target: T2, Cathepsin G (UniProt P08311 21-244)
T2 sequence (looked up): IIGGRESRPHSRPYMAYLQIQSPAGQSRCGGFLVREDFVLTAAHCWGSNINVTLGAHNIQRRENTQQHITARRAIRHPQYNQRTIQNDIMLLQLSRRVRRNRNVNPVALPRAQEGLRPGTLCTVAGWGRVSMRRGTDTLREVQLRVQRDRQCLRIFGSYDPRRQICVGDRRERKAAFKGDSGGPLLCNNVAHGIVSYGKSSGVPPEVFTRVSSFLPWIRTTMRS

[3] = molecular target: MMP3 (human, UniProt P08254 100-477, limits assumed)
Chain of MMP3 (P08254 100-477 limits assumed): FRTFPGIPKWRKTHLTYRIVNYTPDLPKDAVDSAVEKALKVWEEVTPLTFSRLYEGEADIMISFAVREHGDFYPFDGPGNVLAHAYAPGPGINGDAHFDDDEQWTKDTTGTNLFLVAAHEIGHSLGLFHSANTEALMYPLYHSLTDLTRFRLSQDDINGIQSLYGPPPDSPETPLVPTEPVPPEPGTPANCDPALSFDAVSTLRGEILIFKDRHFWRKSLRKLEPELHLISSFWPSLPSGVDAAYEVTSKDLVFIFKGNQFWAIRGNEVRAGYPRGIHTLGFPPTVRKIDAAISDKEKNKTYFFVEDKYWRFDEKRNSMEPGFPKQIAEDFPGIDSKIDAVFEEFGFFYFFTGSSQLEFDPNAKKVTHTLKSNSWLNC

[4] = molecular target: Elastase
[5] = molecular target: T3, MMP1 (human, UniProt P03956 100-469, limits assumed)
T3 sequence (looked up): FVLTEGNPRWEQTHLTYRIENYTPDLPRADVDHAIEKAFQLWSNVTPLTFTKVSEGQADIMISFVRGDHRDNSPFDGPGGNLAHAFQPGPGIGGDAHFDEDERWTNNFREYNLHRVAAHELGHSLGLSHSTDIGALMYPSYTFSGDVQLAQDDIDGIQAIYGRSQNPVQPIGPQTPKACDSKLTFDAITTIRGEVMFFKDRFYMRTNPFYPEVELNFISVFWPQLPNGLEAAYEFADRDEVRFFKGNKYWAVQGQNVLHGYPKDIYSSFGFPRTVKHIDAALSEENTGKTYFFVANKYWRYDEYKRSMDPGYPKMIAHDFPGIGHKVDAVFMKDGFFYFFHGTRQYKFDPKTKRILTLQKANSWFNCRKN

[6] = molecular target: MMP8 (human, UniProt P22894 101-467, limits assumed)
Chain of MMP8 (P22894 101-467 limits assumed): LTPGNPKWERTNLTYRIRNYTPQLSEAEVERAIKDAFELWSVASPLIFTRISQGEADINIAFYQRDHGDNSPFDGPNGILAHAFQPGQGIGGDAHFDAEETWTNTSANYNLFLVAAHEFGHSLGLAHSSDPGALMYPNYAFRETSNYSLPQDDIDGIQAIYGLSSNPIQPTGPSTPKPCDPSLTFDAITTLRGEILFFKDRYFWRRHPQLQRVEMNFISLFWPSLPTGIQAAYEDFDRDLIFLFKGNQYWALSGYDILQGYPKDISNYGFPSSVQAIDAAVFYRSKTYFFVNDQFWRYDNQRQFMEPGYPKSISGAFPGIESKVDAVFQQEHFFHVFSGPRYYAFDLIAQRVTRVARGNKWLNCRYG

[7] = molecular target: T4, MMP7 (UniProt P09237 95-267, limits assumed)
T4 sequence (looked up): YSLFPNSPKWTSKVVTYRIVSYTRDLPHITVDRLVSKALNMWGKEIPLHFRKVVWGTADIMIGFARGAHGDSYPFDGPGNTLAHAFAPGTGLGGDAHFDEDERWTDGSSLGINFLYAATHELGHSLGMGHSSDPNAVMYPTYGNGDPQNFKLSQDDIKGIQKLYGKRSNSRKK

[8] = molecular target: MMP9 (human, UniProt P14780 107-707, limits assumed)
Chain of MMP9 (P14780 107-707 limits assumed): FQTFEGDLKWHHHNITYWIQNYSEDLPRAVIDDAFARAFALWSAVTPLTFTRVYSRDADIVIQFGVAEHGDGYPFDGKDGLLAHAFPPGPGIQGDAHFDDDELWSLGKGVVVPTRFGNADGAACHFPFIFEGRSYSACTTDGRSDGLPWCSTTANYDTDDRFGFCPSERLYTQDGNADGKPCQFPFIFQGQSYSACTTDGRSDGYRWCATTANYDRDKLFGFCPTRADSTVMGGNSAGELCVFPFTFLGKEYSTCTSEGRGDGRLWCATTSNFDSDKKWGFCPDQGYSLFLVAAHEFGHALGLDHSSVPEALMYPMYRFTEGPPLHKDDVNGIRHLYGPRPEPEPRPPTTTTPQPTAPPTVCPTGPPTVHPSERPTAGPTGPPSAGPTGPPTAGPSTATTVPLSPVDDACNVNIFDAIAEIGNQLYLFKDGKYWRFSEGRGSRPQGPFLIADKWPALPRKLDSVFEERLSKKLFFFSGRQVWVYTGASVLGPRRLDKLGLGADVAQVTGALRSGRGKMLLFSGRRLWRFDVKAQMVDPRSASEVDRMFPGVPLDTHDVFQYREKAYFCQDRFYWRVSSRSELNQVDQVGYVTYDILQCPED

[9] = molecular target: T5, MMP2 (human, UniProt P08253 110-660, limits assumed)
T5 sequence (looked up): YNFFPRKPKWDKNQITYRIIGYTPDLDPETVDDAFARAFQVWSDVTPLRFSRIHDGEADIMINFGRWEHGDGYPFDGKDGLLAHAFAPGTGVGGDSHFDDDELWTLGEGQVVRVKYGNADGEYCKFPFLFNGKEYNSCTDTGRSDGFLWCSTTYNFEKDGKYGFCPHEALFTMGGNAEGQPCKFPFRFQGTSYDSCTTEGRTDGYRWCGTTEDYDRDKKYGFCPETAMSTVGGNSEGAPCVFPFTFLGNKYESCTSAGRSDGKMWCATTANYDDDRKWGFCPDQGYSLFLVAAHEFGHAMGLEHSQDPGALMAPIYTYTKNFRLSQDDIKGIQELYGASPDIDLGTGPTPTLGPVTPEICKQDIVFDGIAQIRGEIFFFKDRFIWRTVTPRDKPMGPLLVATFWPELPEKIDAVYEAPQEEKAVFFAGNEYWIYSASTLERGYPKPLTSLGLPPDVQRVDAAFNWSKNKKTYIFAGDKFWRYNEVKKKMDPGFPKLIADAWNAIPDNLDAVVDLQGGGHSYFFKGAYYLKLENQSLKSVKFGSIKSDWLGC

[10] = molecular target: MMP13 (human, UniProt P45452 104-471, limits assumed)

Protease Inhibition (% of WT) [1]: 154 % of WT
Protease Inhibition (% of WT) [2]: 83 % of WT
Protease Inhibition (% of WT) [3]: 38 % of WT
Protease Inhibition (% of WT) [4]: 86 % of WT
Protease Inhibition (% of WT) [5]: 91 % of WT
Protease Inhibition (% of WT) [6]: 82 % of WT
Protease Inhibition (% of WT) [7]: 102 % of WT
Protease Inhibition (% of WT) [8]: 53 % of WT
Protease Inhibition (% of WT) [9]: 58 % of WT
Protease Inhibition (% of WT) [10]: 117 % of WT
B1: Variant A2M, bait region SEQ ID NO 18 (other)
chain: SVSGKPQYMVLVPSLLHTETTEKGCVLLSYLNETVTVSASLESVRGNRSLFTDLEAENDVLHCVAFAVPKSSSNEEVMFLTVQVKGPTQEFKKRTTVMVKNEDSLVFVQTDKSIYKPGQTVKFRVVSMDENFHPLNELIPLVYIQDPKGNRIAQWQSFQLEGGLKQFSFPLSSEPFQGSYKVVVQKKSGGRTEHPFTVEEFVLPKFEVQVTVPKIITILEEEMNVSVCGLYTYGKPVPGHVTVSICRKYSDASDCHGEDSQAFCEKFSGQLNSHGCFYQQVKTKVFQLKRKEYEMKLHTEAQIQEEGTVVELTGRQSSEITRTITKLSFVKVDSHFRQGIPFFGQVRLVDGKGVPIPNKVIFIRGNEANYYSNATTDEHGLVQFSINTTNVMGTSLTVRVNYKDRSPCYGYQWVSEEHEEAHHTAYLVFSPSKSFVHLEPMSHELPCGHTQTVQAHYILNGGTLLGLKKLSFYYLIMAKGGIVRTGTHGLLVKQEDMKGHFSISIPVKSDIAPVARLLIYAVLPTGDVIGDSAKYDVENCLANKVDLSFSPSQSLPASHAHLRVTAAPQSVCALRAVDQSVLLMKPDAELSASSVYNLLPEKDLTGFPGPLNDQDDEDCINRHNVYINGITYTPVSSTNEKDMYSFLEDMGLKAFTNSKIRKPKMCPQLEHGPIPENFYGLEGEGEGEGEAIPMSIPRYLTAEFRGVTVEEPHTKLRKYFPETWIWDLVVVNSAGVAEVGVTVPDTITEWKAGAFCLSEDAGLGISSTASLRAFQPFFVELTMPYSVIRGEAFTLKATVLNYLPKCIRVSVQLEASPAFLAVPVEKEQAPHCICANGRQTVSWAVTPKSLGNVNFTVSAEALESQELCGTEVPSVPEHGRKDTVIKPLLVEPEGLEKETTFNSLLCPSGGEVSEELSLKLPPNVVEESARASVSVLGDILGSAMQNTQNLLQMPYGCGEQNMVLFAPNIYVLDYLNETQQLTPEIKSKAIGYLNTGYQRQLNYKHYDGSYSTFGERYGRNQGNTWLTAFVLKTFAQARAYIFIDEAHITQALIWLSQRQKDNGCFRSSGSLLNNAIKGGVEDEVTLSAYITIALLEIPLTVTHPVVRNALFCLESAWKTAQEGDHGSHVYTKALLAYAFALAGNQDKRKEVLKSLNEEAVKKDNSVHWERPQKPKAPVGHFYEPQAPSAEVEMTSYVLLAYLTAQPAPTSEDLTSATNIVKWITKQQNAQGGFSSTQDTVVALHALSKYGAATFTRTGKAAQVTIQSSGTFSSKFQVDNNNRLLLQQVSLPELPGEYSMKVTGEGCVYLQTSLKYNILPEKEEFPFALGVQTLPQTCDEPKAHTSFQISLSVSYTGSRSASNMAIVDVKMVSGFIPLKPTVKMLERSNHVSRTEVSSNHVLIYLDKVSNQTLSLFFTVLQDVPVRDLKPAIVKVYDYYETDEFAIAEYNAPCSKDLGNADYKDDDDKGASHHHHHH

Protease Inhibition (% of WT) [1]: 530 % of WT
Protease Inhibition (% of WT) [2]: 90 % of WT
Protease Inhibition (% of WT) [3]: 140 % of WT
Protease Inhibition (% of WT) [4]: 115 % of WT
Protease Inhibition (% of WT) [5]: 100 % of WT
Protease Inhibition (% of WT) [6]: 51 % of WT
Protease Inhibition (% of WT) [7]: 137 % of WT
Protease Inhibition (% of WT) [8]: 39 % of WT
Protease Inhibition (% of WT) [9]: 36 % of WT
Protease Inhibition (% of WT) [10]: 89 % of WT
B2: Variant A2M, bait region SEQ ID NO 19 (other)
chain: SVSGKPQYMVLVPSLLHTETTEKGCVLLSYLNETVTVSASLESVRGNRSLFTDLEAENDVLHCVAFAVPKSSSNEEVMFLTVQVKGPTQEFKKRTTVMVKNEDSLVFVQTDKSIYKPGQTVKFRVVSMDENFHPLNELIPLVYIQDPKGNRIAQWQSFQLEGGLKQFSFPLSSEPFQGSYKVVVQKKSGGRTEHPFTVEEFVLPKFEVQVTVPKIITILEEEMNVSVCGLYTYGKPVPGHVTVSICRKYSDASDCHGEDSQAFCEKFSGQLNSHGCFYQQVKTKVFQLKRKEYEMKLHTEAQIQEEGTVVELTGRQSSEITRTITKLSFVKVDSHFRQGIPFFGQVRLVDGKGVPIPNKVIFIRGNEANYYSNATTDEHGLVQFSINTTNVMGTSLTVRVNYKDRSPCYGYQWVSEEHEEAHHTAYLVFSPSKSFVHLEPMSHELPCGHTQTVQAHYILNGGTLLGLKKLSFYYLIMAKGGIVRTGTHGLLVKQEDMKGHFSISIPVKSDIAPVARLLIYAVLPTGDVIGDSAKYDVENCLANKVDLSFSPSQSLPASHAHLRVTAAPQSVCALRAVDQSVLLMKPDAELSASSVYNLLPEKDLTGFPGPLNDQDDEDCINRHNVYINGITYTPVSSTNEKDMYSFLEDMGLKAFTNSKIRKPKMCPQLEHGPEGEGEGEFRGVTIPENFYGVSEDLVVQISELEGRGSVEEPHTKLRKYFPETWIWDLVVVNSAGVAEVGVTVPDTITEWKAGAFCLSEDAGLGISSTASLRAFQPFFVELTMPYSVIRGEAFTLKATVLNYLPKCIRVSVQLEASPAFLAVPVEKEQAPHCICANGRQTVSWAVTPKSLGNVNFTVSAEALESQELCGTEVPSVPEHGRKDTVIKPLLVEPEGLEKETTFNSLLCPSGGEVSEELSLKLPPNVVEESARASVSVLGDILGSAMQNTQNLLQMPYGCGEQNMVLFAPNIYVLDYLNETQQLTPEIKSKAIGYLNTGYQRQLNYKHYDGSYSTFGERYGRNQGNTWLTAFVLKTFAQARAYIFIDEAHITQALIWLSQRQKDNGCFRSSGSLLNNAIKGGVEDEVTLSAYITIALLEIPLTVTHPVVRNALFCLESAWKTAQEGDHGSHVYTKALLAYAFALAGNQDKRKEVLKSLNEEAVKKDNSVHWERPQKPKAPVGHFYEPQAPSAEVEMTSYVLLAYLTAQPAPTSEDLTSATNIVKWITKQQNAQGGFSSTQDTVVALHALSKYGAATFTRTGKAAQVTIQSSGTFSSKFQVDNNNRLLLQQVSLPELPGEYSMKVTGEGCVYLQTSLKYNILPEKEEFPFALGVQTLPQTCDEPKAHTSFQISLSVSYTGSRSASNMAIVDVKMVSGFIPLKPTVKMLERSNHVSRTEVSSNHVLIYLDKVSNQTLSLFFTVLQDVPVRDLKPAIVKVYDYYETDEFAIAEYNAPCSKDLGNADYKDDDDKGASHHHHHH
